Data on 27 sequences can be found in the supplement of paper PMC9170038.

The test system of this data set is MS2 coat protein. Briefly: apparent KD of MS2 coat protein; designed switch direction (-1 OFF switch, 1 ON switch): 1; higher = weaker reporter binding. The method, boiled down:
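The buffer was Tris-HCl pH 7.5 with KCl, MgCl2, BSA, DTT, tRNA and Tween-20. In it, SNAP-549-labelled MS2 coat protein was titrated in doubling steps from 0.7 or 1.5 nM to 3 µM over chip-bound RNA switches transcribed by stalled E. coli RNA polymerase on Illumina chips. Apparent KD is the per-design median over clusters of curve fits to normalised fluorescence.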

Where [1] appears, read: input ligand: microRNA oligo, concentration not stated.
Where [2] appears, read: Eterna round: R95, input ligand: FMN 200 uM.
Setting [3] is: Eterna round: R95, input ligand: microRNA oligo, concentration not stated.
Where [4] appears, read: Eterna round: R95, input ligand: none.

In the case of “AUUAUUUUUGCAGGAUAUGAUUAACAUGAGGAUCACCCAUGUGGUGUUGUGAGUAAGGAGAGUGAUCAGAAGGGCAUUUUUUUU [JMF's solution 60] (Eterna round: R96, puzzle: Same State NG 2)”, the “apparent KD of MS2 coat protein” value reads like this: (input ligand: FMN 200 uM) 0.449 µM; under setting [1], 0.41 µM; (input ligand: none) 0.315 µM.

For “GUAGCAUGCAGGCAGGAUAUUCAUAUUAAAACAUGAGGAUCACCCAUGUAGGCCAAAAGGCCUUGGGAGAAGGGCCACAUGCUAC [Xeonanis - 19] (Eterna round: R96, puzzle: Same State 2)”, the “apparent KD of MS2 coat protein” value is 0.0357 µM (input ligand: FMN 200 uM), 0.337 µM under setting [1] and 0.424 µM (input ligand: none).

For the sequence “AUUUAACAAGCUUUUUGCUCGUCUUAUAAACAUGAGGAUCACCCAUGUAAUAGCGUGAGAGUAAUUAUAUAAAUAAU [JMF 86] (puzzle: Sensor for hsa-mir-208a)”, the “apparent KD of MS2 coat protein” value worked out at 0.0164 µM under setting [2], 0.043 µM under setting [3] and 0.0154 µM under setting [4].

In the case of “CAUCGUUUGAUAGGAUAUCGCUAUACAUGAGGAUCACCCAUGUUUACCACGCUGGUUUUUCAUACCGAGAAGGAUUCUGAUGUU [salish99_SSNG02_r04_015] (Eterna round: R96, puzzle: Same State NG 2)”, the “apparent KD of MS2 coat protein” value was 0.036 µM (input ligand: FMN 200 uM), 0.0252 µM under setting [1] and 0.0386 µM (input ligand: none).

“AUACAUAUCAGAGGAUAUCACGUCGAAUAGACGUGAGAAGGCUGAUCACACAUGAAUAUUAAUACAUGAGGAUCACCCAUGUAU [SSNG1/14-A1] (Eterna round: R96, puzzle: Same State NG 1)”: the “apparent KD of MS2 coat protein” value (input ligand: FMN 200 uM) stood at 0.0131 µM, the “apparent KD of MS2 coat protein” value under setting [1] worked out at 0.0133 µM and the “apparent KD of MS2 coat protein” value (input ligand: none) stood at 0.0174 µM.

As to “CCAAAGUACAAUUUAGAUCUACAUGAGGAUCACCCAUGUACUGAGGAUAUCAGCUCGUUUAGAGCUGAGAAGGCAGAAUUAAUU [SSNG3/4-A3] (Eterna round: R96, puzzle: Same State NG 3)”, the “apparent KD of MS2 coat protein” value (input ligand: FMN 200 uM) is 0.135 µM, the “apparent KD of MS2 coat protein” value under setting [1] is 0.111 µM and the “apparent KD of MS2 coat protein” value (input ligand: none) is 0.224 µM.

As for “AGCUAUUAAUCAGGAUAUGGUGACAUGAGGAUCACCCAUGUAUAGAUGAUUAAAUGUGGUCUAAACUAGAAGGGAUUACUAACA [SameState NG2 #54] (Eterna round: R96, puzzle: Same State NG 2)”, the “apparent KD of MS2 coat protein” value was determined as 0.156 µM (input ligand: FMN 200 uM), 0.283 µM under setting [1] and 0.268 µM (input ligand: none).

For the sequence “AUUAAGAGCGUAGGAUAUGGGAAAGGAAGUGUACCAGAAGGACGAAUACAGCGUCCGGACAUGAGGAUCACCCAUGUAGGACGG [PowerStrip SSNG 1.18] (Eterna round: R96, puzzle: Same State NG 1)”, the “apparent KD of MS2 coat protein” value runs as follows: (input ligand: FMN 200 uM) 0.0104 µM; under setting [1], 0.0239 µM; (input ligand: none) 0.0562 µM.

On to “UUGAAGAAUUAAGGAUAUUGAUUACAUAUGUUUAACAUGAGGAUCACCCAUGUGGGUUGCGGUAUCGAGAAGGUAAAAUAAUAG [Mat - same State NG 2 - JL mod - D82] (Eterna round: R96, puzzle: Same State NG 2)”, for which the “apparent KD of MS2 coat protein” value reads like this: (input ligand: FMN 200 uM) 0.181 µM; under setting [1], 0.231 µM; (input ligand: none) 0.258 µM.

In the case of “AAAGAAAACAUAGGAUAUGUAACAUGAGGAUCACCCAUGUGUAGCCCGUAAGGGAUGACGGAUGGACAGAAGGAUGGUCUCAGG [Default title] (Eterna round: R96, puzzle: Same State NG 2)”, the “apparent KD of MS2 coat protein” value came out at 0.403 µM (input ligand: FMN 200 uM), 0.155 µM under setting [1] and 0.104 µM (input ligand: none).

Regarding “GCCGCGUUUCGCGCCUACAUGAGGAUCACCCAUGUUUGUAGGCAGGAUAUCGUCCGCUCUGCGGGCGAGAAGGGCUGUUGUGGU [salish99_SSNG3_R04_024] (Eterna round: R96, puzzle: Same State NG 3)”, the “apparent KD of MS2 coat protein” value is, setting by setting: (input ligand: FMN 200 uM) 0.0656 µM; under setting [1], 0.0581 µM; (input ligand: none) 0.0867 µM.

As for “UUAGAAUUGCAAGGAUAUCUAAUUUAGAUAGUAAGAGAAGGUGCUUUAUAGUUACAUGAGGAUCACCCAUGUUUUUUUUUUUAU [JR_SSNG1_Sub060] (Eterna round: R96, puzzle: Same State NG 1)”, the “apparent KD of MS2 coat protein” value is 0.0423 µM (input ligand: FMN 200 uM), 0.0363 µM under setting [1] and 0.0499 µM (input ligand: none).

In the case of “UGUUGUAUUACAGGAUAUCUAUUGUUUUUAUGUAGAGAAGGGUAUUCACAUGAGGAUCACCCAUGUAUAUACGAGGAAGUUGUG [JMF's solution 85] (Eterna round: R96, puzzle: Same State NG 1)”, the “apparent KD of MS2 coat protein” value was 0.0532 µM (input ligand: FMN 200 uM), 0.0366 µM under setting [1] and 0.0488 µM (input ligand: none).

Take “GGUCCAGCCUGAGCUGGACAAAAGCAUGUACAUGAGGAUCACCCAUGUCAUGUACAAGCUUUUUGCUCGUCAUAAAU [Mat - hsa-mir-208a - 96] (Eterna round: R96, puzzle: Sensor for hsa-mir-208a)”: the “apparent KD of MS2 coat protein” value (input ligand: FMN 200 uM) was found to be 0.573 µM, the “apparent KD of MS2 coat protein” value under setting [1] was found to be 0.0163 µM and the “apparent KD of MS2 coat protein” value (input ligand: none) worked out at 0.435 µM.

For “GUAGCAUACCGAGGAUAUUCAUAUUACAUGAGGAUCACCCAUGUUAAAGAUAGGCGAAAGCCUUGGGAGAAGGCGGAAUGCUAC [Xeonanis - 20 Mod68] (Eterna round: R96, puzzle: Same State NG 2)”, the “apparent KD of MS2 coat protein” value reads like this: (input ligand: FMN 200 uM) 0.00861 µM; under setting [1], 0.0107 µM; (input ligand: none) 0.0113 µM.

In the case of “ACCCGCGACGGAGGAUAUGGGCACUCGGCGAAAUAAACCGCCAUAACAUGAGGAUCACCCAUGUCCCAGAAGGCCGUCGCAAUC [Anlelaen] (Eterna round: R96, puzzle: Same State NG 2)”, the “apparent KD of MS2 coat protein” value (input ligand: FMN 200 uM) amounted to 0.081 µM, the “apparent KD of MS2 coat protein” value under setting [1] stood at 0.154 µM and the “apparent KD of MS2 coat protein” value (input ligand: none) came out at 0.473 µM.

On to “AGCCGAAGCGCAGGAUAUACAUGUAUACAUGAGGAUCACCCAUGUAGCAACACGUGGUAGUGAUUGUAGAAGGGUGCUCGGCGC [Omei SS(NG)2 Cv15] (Eterna round: R96, puzzle: Same State NG 2)”, for which, under setting [1], the “apparent KD of MS2 coat protein” value worked out at 0.0186 µM.

In the case of “GGAGCCGAUACUGAGGAUAUUCAUAUUAAAACAUGAGGAUCACCCAUGUAGGCCAGAAGGCCUUGGGAGAAGGCAGAUCGGCUCC [Biseusra - 4] (puzzle: Same State 2)”, the “apparent KD of MS2 coat protein” value under setting [2] is 0.0195 µM, the “apparent KD of MS2 coat protein” value under setting [3] was 0.301 µM and the “apparent KD of MS2 coat protein” value under setting [4] stood at 0.45 µM.

On to “ACAUAGGUUUCAGGAUAUGGGUAAAUUCCCAACAUGAGGAUCACCCAUGUCCGUUGGGAUAACAUCCAGAAGGGAAGCCACAUA [MOD2 Eternabot Solution 1 (Score 87.5)] (Eterna round: R96, puzzle: Same State NG 2)”, for which the “apparent KD of MS2 coat protein” value reads like this: (input ligand: FMN 200 uM) 0.215 µM; under setting [1], 0.0881 µM; (input ligand: none) 0.39 µM.

“ACAUGAGAGUGAGGAUAUAUAGUACCUACAUGUGACAUGAGGAUCACCCAUGUGGUAAGUAUGACAUAGAAGGCACAGAUAUGU [Equivalance 100 - Jieux - Same State NG 2] (Eterna round: R96, puzzle: Same State NG 2)”: the “apparent KD of MS2 coat protein” value runs as follows: (input ligand: FMN 200 uM) 0.0379 µM; under setting [1], 0.0714 µM; (input ligand: none) 0.0842 µM.

Consider “AUUGCUGUCACAGGAUAUCAUGCGGAAAUCGCGUGAGAAGGGUGGACUCUGUCAUUCACGGAGGACAUGAGGAUCACCCAUGUC [SS NG10LRO18] (Eterna round: R96, puzzle: Same State NG 1)”, for which the “apparent KD of MS2 coat protein” value runs as follows: (input ligand: FMN 200 uM) 0.508 µM; under setting [1], 0.029 µM; (input ligand: none) 0.0624 µM.

Turning to “GGGAAGAGGGACAAGGAUAUGUCAAAAGAGACAUGAGGAUCACCCAUGUGGAGGUUGGAGCAGAGACAGAAGGUGUACGGAGAGA [JR_SS2_Sub009] (puzzle: Same State 2)”, the “apparent KD of MS2 coat protein” value reads like this: under setting [2], 0.0697 µM; under setting [3], 0.063 µM; under setting [4], 0.152 µM.

With “GCGAGCGUACUUGCUACAUGAGGAUCACCCAUGUCUGUUGGACAGGAUAUGGUACCGUUUCGGUACCAGAAGGGUUCAUCAUGU [JL SSNG3 3.74] (Eterna round: R96, puzzle: Same State NG 3)”, the “apparent KD of MS2 coat protein” value runs as follows: (input ligand: FMN 200 uM) 0.439 µM; under setting [1], 0.074 µM; (input ligand: none) 0.262 µM.

“ACAUGAGAGUUAGGAUAUGUUGUACCUACAUGUGACAUGAGGAUCACCCAUGUGGUAAGUAUGAGGCAGAAGGGACAGAUAUGU [Equivalence 46 - Jieux - Same State NG 2] (Eterna round: R96, puzzle: Same State NG 2)”: the “apparent KD of MS2 coat protein” value reads like this: (input ligand: FMN 200 uM) 0.0757 µM; under setting [1], 0.0517 µM; (input ligand: none) 0.137 µM.

With “UUUGGGUGGCUGGAGGAUAUCCUUGUUGUUACAUGAGGAUCACCCAUGUGCCGCGCGGUUCGCGAGGAGAAGGCUGGCGGCCGUU (puzzle: Same State 2)”, the “apparent KD of MS2 coat protein” value under setting [3] turned out to be 0.169 µM.

As to “GGAAUAUGAUGUUACAUGAGGAUCACCCAUGUAGUGACAACUAAGGAUAUCUGAAAAGAAGGAGAGGAGAAGGUAGGAUCAUAA [AK SSNG3-V2-14.1] (Eterna round: R96, puzzle: Same State NG 3)”, the “apparent KD of MS2 coat protein” value (input ligand: FMN 200 uM) came out at 0.0257 µM, the “apparent KD of MS2 coat protein” value under setting [1] stood at 0.0231 µM and the “apparent KD of MS2 coat protein” value (input ligand: none) came to 0.036 µM.

For “UGAAUAGUUACAGGAUAUCAUGCGAAAAUUGCGUGAGAAGGGUGGGUGUUGUGCGCAAAGUGCUACAUGAGGAUCACCCAUGUU [SameState NG1 #39] (Eterna round: R96, puzzle: Same State NG 1)”, the “apparent KD of MS2 coat protein” value is, setting by setting: (input ligand: FMN 200 uM) 0.278 µM; under setting [1], 0.0231 µM; (input ligand: none) 0.277 µM.
